Experimental data reported in patent US20170267766A1 (PIERRE FABRE MEDICAMENT, published 2017).

Experiments:
[1] = target: T1, human IGF-1R (native, on cells) (human, UniProt P08069 31-1367); assay: FACS titration, hIGF-1R transfected cells
T1 construct: also called hIGF-1R; native IGF-1R on MCF-7 cells
Experimental: Briefly, increasing concentrations of chimeric mAbs were incubated with cells for 20 min at 4° C. in FACS buffer (PBS, 0.1% BSA, 0.01% NaN₃). Cells were then washed 3 times and incubated with the appropriate secondary antibody coupled with Alexa 488 before being incubated for 20 additional minutes at 4° C. in the dark and then washed 3 times in FACS buffer. The binding of anti-IGF-1R antibodies was immediately performed on viable cells which were identified using propidium iodide (that stains dead cells). The binding EC₅₀ expressed in molarity (M) was calculated using a nonlinear regression analysis (GraphPad Prims 4.0).

[2] = target: T1, human IGF-1R (native, on cells); assay: FACS on MCF-7 cells, 4°C; inset table, axis log [M]
Experimental: (§1) The binding properties of a series of anti-IGF-1R antibodies were evaluated by FACS analyses on the human MCF-7 breast adenocarcinoma cell line (ATCC#HTB-22) using increasing antibody concentrations. For that purpose, cells (1×10⁶ cells/ml) were incubated with anti-IGF-1R antibodies for 20 min. at 4° C. in FACS buffer (PBS, 0.1% BSA, 0.01% NaN₃). They were then washed 3 times and incubated with the appropriate secondary antibody coupled with Alexa 488 for 20 additional minutes at 4° C. in the dark before being washed 3 times in FACS buffer. The binding of anti-IGF-1R antibodies was immediately performed on viable cells which were identified using propidium iodide (that stains dead cells). The maximum of signal intensity obtained with each antibody was designed as Bₘₐₓ and expressed in mean of fluorescence intensity (MFI). The EC₅₀ of binding expressed in molarity (M) was calculated using a nonlinear regression analysis (GraphPad Prims 4.0).

[3] = target: T1, human IGF-1R (native, on cells); assay: cell-based or functional assay
[4] = target: T2, soluble recombinant Cynomolgus monkey IGF-1R with C-terminal 10-His tag (produced in house) (Cynomolgus monkey); assay: SPR Biacore X100, single cycle kinetics, His-captured IGF-1R ~160 RU, 1:1 model
T2 construct: extracellular domain; also called Cynomolgus IGF-1R ECD; Macaca IGF-1R
Experimental: (§2) The recognition experiments were run on a Biacore X100 device using a CM5 sensor chip activated by an anti-Tag His antibody (His capture kit GE Healthcare catalogue number 28-9950-56). More than 11000 RU of antibodies are chemically grafted on the carboxymethyldextan matrix using the amine kit chemistry. The experiments were carried out at 25° C. with a flow rate of 30 μl/min using the HBS-EP buffer (GE Healthcare) as the running and sample dilution buffer.
(§3) Solution of a second antibody is either injected in the same conditions on both flowcells or only on the second flowcell. […] At the end of the fifth injection the running buffer was passed in order to define the dissociation rate. The surface was then regenerated with an injection of a 10 mM Glycine, HCl pH 1.5 buffer during 30s.
(§4) The resulting sensorgrams were analysed using the Biaevaluation software with a 1:1 model. […] The quality of the fitting was assessed by a Chi2/Rmax ratio lower than 0.05 RU.

[5] = target: T3, monkey IGF-1R (on COS-7 cells) (African green monkey); assay: cell-based or functional assay
[6] = target: T2, soluble recombinant Cynomolgus monkey …; assay: SPR, common fit of the human and cynomolgus sensorgrams
Experimental: as §2, §3, §4

[7] = target: T1, human IGF-1R (native, on cells); assay: cell-based or functional assay; remark: listed apart in the source
[8] = target: T4, chimerical h/m IGF-1R construct C7 (human/mouse chimera, UniProt P08069 31-932, limits assumed); assay: SPR (Biacore X100), ratio of IGF-1R binding level to c208F2 capture level, supernatants diluted 10 times
T4 construct: 17 mouse specific residues

[9] = target: T5, chimerical h/m IGF-1R construct C2 (human/mouse chimera, UniProt Q60751 31-937 (mouse entry)); assay: as above
T5 construct: soluble form, supernatant
T5 sequence (Q60751 other isoform, or with tags, fused parts or gaps mutant limits assumed): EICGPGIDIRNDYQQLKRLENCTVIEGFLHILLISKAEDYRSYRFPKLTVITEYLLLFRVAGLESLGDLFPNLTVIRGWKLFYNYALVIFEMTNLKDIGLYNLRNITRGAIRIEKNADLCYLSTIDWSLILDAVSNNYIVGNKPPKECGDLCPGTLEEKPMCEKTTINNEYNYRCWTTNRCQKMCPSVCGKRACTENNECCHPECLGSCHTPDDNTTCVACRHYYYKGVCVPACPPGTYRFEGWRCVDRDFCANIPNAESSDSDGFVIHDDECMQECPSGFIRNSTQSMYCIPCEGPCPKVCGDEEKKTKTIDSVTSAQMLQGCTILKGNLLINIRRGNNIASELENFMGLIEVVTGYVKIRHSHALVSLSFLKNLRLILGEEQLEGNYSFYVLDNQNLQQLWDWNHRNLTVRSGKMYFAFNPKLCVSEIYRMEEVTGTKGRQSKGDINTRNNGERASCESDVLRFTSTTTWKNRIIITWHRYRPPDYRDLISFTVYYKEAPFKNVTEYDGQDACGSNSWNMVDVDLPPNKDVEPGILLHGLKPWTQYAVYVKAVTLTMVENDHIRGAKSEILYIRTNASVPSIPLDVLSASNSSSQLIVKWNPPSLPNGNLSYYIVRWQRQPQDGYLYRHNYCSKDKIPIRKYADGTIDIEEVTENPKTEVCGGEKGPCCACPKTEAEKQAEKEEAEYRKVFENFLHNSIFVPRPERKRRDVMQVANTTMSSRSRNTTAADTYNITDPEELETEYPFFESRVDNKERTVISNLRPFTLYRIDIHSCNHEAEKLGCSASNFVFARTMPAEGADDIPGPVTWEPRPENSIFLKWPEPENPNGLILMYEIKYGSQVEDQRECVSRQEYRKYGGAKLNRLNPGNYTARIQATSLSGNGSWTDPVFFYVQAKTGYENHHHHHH

[10] = target: T3, monkey IGF-1R (on COS-7 cells); assay: FACS on COS-7 cells, 4°C; inset table, axis log [M]
Experimental: In order to evaluate the binding of anti-IGF-1R antibodies on monkey IGF-1R, the binding of both murine and chimeric anti-hIGF-1R antibodies was evaluated by FACS analyses on COS-7 cell line using increasing antibody concentrations. Cells (1×10⁶ cells/ml) were incubated with anti-IGF-1R antibodies for 20 minutes at 4° C. in FACS buffer (PBS, 0.1% BSA, 0.01% NaN₃). Then, cells were washed 3 times and incubated with the appropriate secondary antibody coupled with Alexa 488 before being incubated for 20 additional minutes at 4° C. in the dark and finally washed 3 times in FACS buffer. The binding of anti-IGF-1R antibodies was immediately evaluated on viable cells identified using propidium iodide (that stains dead cells). The binding EC₅₀ expressed in molarity (M) was calculated using a nonlinear regression analysis (GraphPad Prims 4.0).

[11] = target: T1, human IGF-1R (native, on cells); assay: FACS titration, MCF-7
Experimental: as §1

B1: c208F2 (antibody, human IgG1, kappa, V domains shown)
VH: QVQLQQSGPELVKPGASVKMSCKASGYTFTSYYIYWVKQRPGQGLEWLGWIWPGDGSTKYNEKFKDKTTLTADKSSNTAYMFLSSLTSEDSAVYFCASPMITPNYAMDYWGQGASVTVSS
VL: DIQMTQTTSSLSASLGDRVTISCRASQDISKYLNWYQQQPDGTIKLLIYYTSRLHSGVPSRFSGRGSGTDYSLTISNVEQEDIATYFCQQGSTLPYTFGGGTKLEIKR
notes: group G2; also called chimeric 208F2
- Bmax [1]: 2010 MFI
- EC50 [1]: 0.32 nM
- EC50 [2]: 0.532 nM
- hIGF-1R phosphorylation, % of that induced by IGF-1 (MCF-7, Ab 10 µg/ml) [3]: < 20%
- Kd [4]: 0.17 nM
- % internalisation [5]: 67%
- ΔMFI [5]: 52 MFI
- Kd [6]: 0.22 nM
- % Internalization (MCF-7, 10 µg/ml, 4 h) [7]: 83%
- ΔMFI [7]: 288 MFI
- binding result [8]: binds
- binding result [9]: no binding
- EC50 [10]: 0.657 nM
- Bmax [11]: 981 MFI
- EC50 [11]: 0.67 nM
